# Data taken from article PMC3458572.
# Where two headings read alike, the source gives them in different places.
# Assays:
# Test in all cases: immunodepletion
# [1] = target: Xenopus laevis FANCD2, extract-endogenous, non-ubiquitinated (Xenopus laevis (endogenous in egg extract))
# [2] = target: Xenopus laevis FANCD2, extract-endogenous, non-ubiquitinated (Xenopus laevis (endogenous in egg extract)); remark: listed apart in the source
# [3] = target: Xenopus laevis FANCI, extract-endogenous (Xenopus laevis (endogenous in egg extract)) (UniProt D2JYR7)
percent co-depleted [1] [%],percent co-depleted [2] [%],percent co-depleted [3] [%],Substance
80,80,,"Xenopus laevis FANCI, extract-endogenous (from UniProt D2JYR7 1-1337) (natural protein)"
,,80,"Xenopus laevis FANCD2, extract-endogenous, non-ubiquitinated (natural protein)"
